These results are taken from article PMC10873203.

The stoichiometry N is a count of units in the complex or per binding partner.

The experiment addresses recombinant extracellular domain of human insulin receptor (human). Nature of the experiment: SDS-PAGE under non-reducing and reducing conditions (Coomassie); 0.5 µg ECD-IR in Laemmli buffer with or without 2.5% 2-mercaptoethanol, 80 °C 10 min.

On to “recombinant extracellular domain of human insulin receptor”, for which the stoichiometry N amounted to 2.
